Experimental data: the RNAGym collection of RNA variant scans (doi:10.1073/pnas.2313332121)
Variants at the floor of the assay were thinned out.

B1: TPR 5TU (parent)
chain: GGAUCUUCUCGAUCUAACAAAAAAGACAAAUCUGCCACAAAGCUUGAGAGCAUCUUCGGAUGCAGAGGCGGCAGCCUUCGGUGGCGCGAUAGCGCCAACGUUCUCAACUAUGACACGCAAAACGCGUGCUCCGUUGAAUGGAGUUUAUCAUG

Variants of: B1
Assay: polymerase ribozyme fitness, log enrichment relative to wild type (log ratio); higher = more active; in vitro selection for triplet polymerase activity
Procedure, shortened: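 For each subunit of a heterodimeric triplet polymerase ribozyme, a mutant library was built by PCR and transcribed, then taken through a single in vitro selection round in triplicate. Selection involved annealing to a biotinylated primer, the partner subunit and triplets, incubation frozen at −7 °C, gel excision of extended constructs, capture on streptavidin beads and RT-PCR. Genotypes were retained after Illumina sequencing of inputs and outputs only with ≥10 input reads and ≥1 read in each output. Fitness is defined as the logarithm of a genotype's enrichment relative to wild-type enrichment, using inverse-variance-weighted averages across replicates, with the logarithm taken to base 2.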

| Variant | polymerase ribozyme fitness (log ratio) |
| --- | --- |
| GGAUCUUCUCGAUCUAACAAAAAAGACAAAUCUGCCACAAAGCUUGAGAGCUUCUUCGAAUGCAGAGGCGGCAGCCUUCGGUGGCGCGAUAGCGCCAGCGUUCUCAACUAUGACACGCAAAACGCGUGCUCCGUUGAAUGGAGUUUAUCAUG | -1.21 |
| GGAUCUUCUCGAUCUAACAAAAAAGACAAAUCUGCCACAAAGCUUGAGAGCAUCUUCGGAUGCAGAGUCGGCAGCCUUCGGUGGCGCGAUAGCCACAACGUUCUCAACUAUGACUCGCAAAACGCGUGCUCCGUUUAAUGGAGUUUAUCAUG | ≤ -4.2 |
| GGACUUUCUCGCUCUAACAAAAAACACAAAUCUGCCACAUAGCUUGAGAGCAUCUUCCGAUGCAGAGGCGGCAGCCUUCGGUGGCGCGAUAGCGCCAACGUUCUCAACUAUGACACGCAAAACGCGUGCUCCUUUGAAUGGAGUUUAUCAUG | ≤ -4.2 |
| GGAUCUUCUCGAUCUAACUAAAAAGUCAAAUCUGCCACAAAGCUUAAGAGCAUCUUCGGAUGCAGAGGCGGCAGCCUUCGGUGGCGAGAUUGCACCAACGUUCUCAACUAUGACACGCAAAACGCGCGCUCCGUUGAAUGGACUUUAUCAUG | ≤ -4.2 |
| GGAUCUUCUCGAUCUAACUAAAAAGACUAAUCUGCCACAAAGCUUGAGAGCAUCUUCGGAUGCAGACGCGGCAGCCUUCGGAGGCGAGAUAGCGCCAACGUUCUCAACUAUGACACGCAAACCGCGCGCUCCGUUGAAUGGAGUCUAUCAUG | ≤ -4.2 |
| GGAUCUUCUCGAUCUAACAUAAAAGACAAAUCUGCCACAAAGCUUGAGAGCAUCUUUGGAUGCAGAGGCGGCAGCCUUCGGUGGCGCGAUAGCGCCAACGUUCUCAACUAUGACACGCAAAACGCGUGCUCCGUUGAAUGGAGUUUAUCAUG | -2.23 |
| GGAUCUUCUCGAUCUAACAAAAAAGACAAAUCUGCCUCAAAGCUUGAGAGCAUCUCCGGAUGCAGAGGUGGCAGCCUUCGGUGGCGCGAUAGCGCCAACGUUCUCAACUAUGACACGCAAAACGCGUGCUCCGUUGAAUGGAGUUUAUCAUG | -2.76 |
| GGAUCUUUUCGAUCUAACUAAAAAGACAAAUCUGCCACAAAGCUUGAGAGCAUCUUCGGAUACAGAGGCGGCAGCCUUCGGUGGCCCGAUAGCGCCAACGUUCUCAACUAUGCCACGCAAAACGCGUGCUCCGUUGAAUGGAGUUUAUCAUG | ≤ -4.2 |
| GGAUCUUCUCGAUCUAACAAAAAUGACGAAUCUGCUACAAAGCUUGAGAGCAUCUUCGGAUACAGAGGCGGCAGCCUGCGGUAGCGCGAUGGCGCCAACGUUCUCAACUAUGACACGCAAAACGCGUCCUCCGUUGAAUGGAGUUUAUCAUG | -3.66 |
| GGAUCUUCUCGAUCUAACAAAAAAGACAAAUCUGCCACAAAGCUUGAGAGCAUCUUCUGAUGCAGAGGAGGCAGCCUUCGGUAGCGCGAUAGCGCCAACGUUCUCAACUAUGACACGCAAAACGCGUGCUCCGUUGAAUGGAGUUUAUCAUG | -1.52 |
| GGAUCUUCUCGAUCUAACAAAAAAGACAAAUCUGCCACAAAGCUUGAGAGCAUCUUCGGAUGCAGAGGCGGCAGCCUUCGGUGGCGCGAUAGCGCCAACGUUCUCAACUAUGACACGCUAAACGCGUGCUCCGUUGUAUGGAGUUUAUCAUG | -4.12 |
| GGAUCUUCUCGAUCUAACAAAAAAGACGAAUCUGCCACAAAGCUUGAGAGCCUCCUCGGAUGAAGAGGCGGCAGCCUUCGGUGGCGUGAUUGCGCCAACGUUCUCAACUAUGACACGCAAAACGCGUGCUCCGUUGAAUGGAGUUUAUCAUG | ≤ -4.2 |
| GGAUCUUCUCGAUCUAACAAAAAAGACAAAUAUGCCACAAAGCUUGAGAGCAUCUUCGGAUGCAGAGGCGGCAGCCUUCGGUAGCGCCAUAGCGCCAACGUUCUCAACUAUGACAGGCAAAACGCGUGCUCCGUUGAAUCGAGUUUAUCAUG | -4.04 |
| GGAUCUUCUCGAUCUAACAAAAAAGACAAAUCUGCCACAAAGCUUGAGAGCAUCUUCAGAUGCAGAGGCGGCAGCCUUCGGUUGCGCGAUAGCGCCAACGUUCUCAACUAUGACACGCAAAACGCGUGCUCCGUUGAAUGGAGUUUAUCAUG | 0.174 |
| GGAUCUUCUCGAUCUAACAAAAAAGACAAAUCUGCCACACAGCAUGAGAGCAUCUUCGGGUGCAGAGGUGGUAGCCUUCGGUCGCGCGAUAGCGCCAACGUUCACAACUAUGACACGCAAAACGCGGGCUCCGUUGAAUGGAGUUUAUCAUA | ≤ -4.2 |
| GGAUCUUCUCGAUCUAACAAAAAAGACAAAUCUGCCACAAAGCUUGAGAGCAUCUUCGGAUGCAGAGGCGGCAGCCUUCGGUGGCGCGAUAGCGCCAACGUUCUCAACUAGGACACGCAAAACGCGUGCUCCGUUGAAUGGAGUUUAUCAUG | -4.05 |
| GGAUCUUCUCGAUCUAACAAAAAAGACAAAUCUGCCACAAAGCUUGAGAGCAUCUUCGGAUGCAGAGGCGGCAGCCUUCGGUGGCGCGAUAGAGCCAACGUUCUCAUCUGUGAUACGCAAAACGCGGGCUCCGUUGAAUGGAGUUUAUCAUG | ≤ -4.2 |
| GGAUCUUCUCGAUCUAACAAAAAAGACAAAUCUGCCACAAAGCUUGAGAGCAUCUUCGGAUGCAGAGGCUGCAGCCUUCGGUGGUGCCAUAGCGCCAACGUUCUCAACUAUGACACGCAAAACGCGUGCUCCGUUGAAUGGAGUCUAUCAUG | ≤ -4.2 |
| GGAUCUUCUCGAUCUAACGAAAAAGACAAAUCUGCCACAAAGCUUGAGAGCAUCAUCGGAUGCAGAGGCGGCAGCCUUCGGUGGCGCGAUAGCGCCAACGUUCUCAACUAUGACACGCAAAACGCGUGCUCCGUUGAAUGGAGUUUAUCAUG | -0.576 |
